From the DeepSol protein solubility set

Assay: soluble on expression in E. coli; label from the status in PepcDB or PDB records

Row | Sequence | soluble on expression in E. coli
1 | MGSDKIHHHHHHMIPEKKSIAIMKELSIGNTKQMLMINGVDVKNPLLLFLHGGPGTPQIGYVRHYQKELEQYFTVVHWDQRGSGLSYSKRISHHSMTINHFIKDTIQVTQWLLAHFSKSKLYLAGHSWGSILALHVLQQRPDLFYTYYGISQVVNPQDEESTAYQHIREISESKKASILSFLTRFIGAPPWKQDIQHLIYRFCVELTRGGFTHRHRQSLAVLFQMLTGNEYGVRNMHSFLNGLRFSKKHLTDELYRFNAFTSVPSIKVPCVFISGKHDLIVPAEISKQYYQELEAPEKRWFQFENSAHTPHIEEPSLFANTLSRHARNHL | not soluble
2 | GPGSMFVEDKGLISEANLRALHVGTLKLHLFLQEWILPVSFSEKYGYKKEVLEEIIERYGSGSAAEARWTFEQLLGECEVPGQISWLEEHISEDIPYFYIADLFDSWCNLHRNLFVCSADAHETAKRSDDRFESELLCKGVIEKAISGVLPYDTAVRALCILAIGCRTNTQFMLKTIKPDFIINRYKLYTDDLAQPIDGNTDVTPLAEVNAATIGLLNALNTELQEQEKLKLWKSSTARKLPLLMQLNATPWCDSVDSLRRGLKGITSNNAATLLEEATQYFRCSELSK | not soluble
3 | MGSEQNDSTSFTQSQASEPKLCVKGCGFFGSPSNMDLCSKCYRGICAEEAQTAVAKAAVEKSFKPSPPRSLFIAEPPAVVVEPKPEKAAVVVVSAEPSSSAVPEANEPSRPARTNRCLCCNKKVGIMGFKCKCGSTFCGEHRYPETHDCSFDFKEVGRGEIAKANPVVKADKIQRF | soluble
4 | MEMSHRSSYFQSIIDEAGSLLRELMNIPDEYEVLFLQGGASLQFSMIPLNLMNTYKKAGYVLTGSWSKKALQEAEKVGEVQVIASSENEKFTTIPKLDGLLGDEKLDYVHITTNNTIEGTKYVDIPHVDKVPLVADMSPNILSERYDVSKFGLIYAGAQKNLGPAGLTIAIIKRDLIGGADRYCPTMLNYETYSKNNSLYNTLPSFSIYVTKLVLEWLKEQGGVSAIEEQNKMKSSLLYNFLDESKLLTSPVDPAYRSLMNIPFTTPSEELNNEFLQKAKERGLVTLKGHRSVGGMRASIYNAMPVQGVQQLVNYMKEFELENR | not soluble
5 | MGSDKIHHHHHHMTKKVLILGAHGKIARLAEKEFLEKTDDSLKLFLRKASRLNPVQPDRETVIEGDATNLEQLVAAMQGVDAVYANLAGGDIKQQAQAVVKAMDKVGIKRLVWISTLGIYDEVPGKFGEWNNSTLGSYITNYRAAADVIEDSDLDYTIVRPAWLTNNDEVDFEVTQKGEVFKGTEVSRKSIAHIVVELIQNNTELKHSIGVNKPNTDGDKPSWY | not soluble
6 | MAHHHHHHMKQSIVTPLRSPLHCATPLPLTFFPSYRRWLPVVRHASRRPHGVFEQRRRGRPHGSTKRVLRHCDAARRVAVVQQKLHVRHVPAIGTKKPTQSHIGSHKAAVAFHRHDSTFLNGVPPNHHTHRRSPRRQFVLRKQTKRFHQEGAVAPLGLVKNGPRPQRTAGITERVYSISLRVTFQKKVSLAAKPVHQLSIDALHALRGVLRRDTSVRKNNPLAHHSHRMLKNVQAVGTLWAKGRRVRLFSSKGTHNIRVYVVEDAQDIHQLMVAHKKNKFPARLHCLPLQGGKKVVNLVGVEPAISDVAKLDNYRRTSNPAILGIRNICQLQYLATAKNIAMNVSKRNQAGLSAADVYRLHVQKRHKICRSAKK | not soluble
7 | MSLGNPTSINPGGSSTTTGMAFNEENGFQVSDYAGQPEGPNLVYIEGGRTVLGSFEEDLMKNGDNVERTVTVASFYMDETEIANIHWLEYLFYVQRDSSQEFYESALPDTTVWASELAYNDPYVDHYFRYPGFRYFPVVGVNWIQANDYCIWRTTVVNNQLAQNAGIDVPEGGGRIPLESGVVLPNYRLPSEAEWEYAAQALIGNQWLDENQTHKRLYPWDGHALRNPYGKQMGMFLANFKRGRGDYAGIAGKLNDGAMITTYIYEFPPNDFGLYCMAGNVNEWVYDVYRPLSFQTFDDLNPLRRNGFLDEEKGYDKAGFQSLVDDHVRVYKGGSWKDVAYWMSPGTRRYLAEDSCTATIGFRCAMIQAGTEGHHHHHH | soluble
8 | MRTIDDRIVHSLNTTVPTASFSGKVDATQTCKELYESLMEAHLSRDKAIKSCIKETSAVVSQLREERAKDSDNLSVIKQLRKEQTKLKLMQSELNVEEVVNDRSLKVFNERCRIHYTPPKIK | soluble
9 | VEADSNIGYNATFGYQKPMGGAGAYWGMEFGLGSRGFKADEMKCIAHNIQYSPFTFGWKIGVADNLSIDPHLGVFASYDYTSKMKESGESISWGDFADYLEVDYNHFDAGMNIGVGLWYDRFNLDFTYQRGFIDVFSDLDGIKTSNFMIRLGIAF | not soluble
10 | DIGVWEYFPATDSLDWSDGVRRIHGVADEYEPSLDDALGFYHPDDRDKISKAVEQTIADREPYDIDLRIVRTDGDVRDVRAWGERVDDPQ | not soluble
11 | MLKNEETEKKLNLNQQRLGTVVAVLKSVNAKKVIDLGCGEGNLLSLLLKDKSFEQITGVDVSYSVLERAKDRLKIDRLPEMQRKRISLFQSSLVYRDKRFSGYDAATVIEVIEHLDENRLQAFEKVLFEFTRPQTVIVSTPNKEYNFHYGNLFEGNLRHRDHRFEWTRKEFQTWAVKVAEKYGYSVRFLQIGEIDDEFGSPTQMGVFTLGAGGHHHHHH | soluble
12 | MIIKKIIDLTMPITAQTPVYPGDPKPKIEPAATFAQDGYHVSRLVLGSHSGTHVDAPFHFCEHGWRLDDVPLTYFLGRGVVIDATGKAEGEAVTMADAAPYIPKLSPGTIVLFHTGWSQYAGTKRYFRHPYVAPDVIEAMLERGVRTFLIDALNIDPPDGSLFHAHELILGANGVIGENFVNFERIDFDDPYIIALPLSLPGCERFARSGGGGAVGVTKKGDTAPHML | not soluble
13 | AIATANLAATDDWGELLDVLDPGDPTGSRVIARYDRLRVHREGLLHRSVHVCVVRSVPDWPAQVHGLRNTNYKLLLQRRSESKAIAPGCWDLSCAEHLRAGESFEGAAVRGLQEELGLALAPDQQTTPIHALDDGEPALQLYDYPSVGLTDYEWNRIYVVFVTDQADEALAKLKLDSAEVAQVRWITRESLQMELAENPSHFTPWFRDQARKHLLPSAYN | soluble
14 | MGSDKIHHHHHHMLDQNQTPLIDGIKACIARPHAAFYTPGHKRGRGIAQPLADLLGEAVFGADLTELANLDNLSAPQGVIQEAQRLAAAAFGAAQTWFLVNGSTCGVEAAIMATCRPGDKIILPRNVHSSAIAGLILSGAIPIFIHPEYDQVLDIAHSMTPEAVKAALQQHPDAKAVLAVYPTYYGVCGDLEAIAQITHQYNIPLLVDEAHGAHFTFHPELPTPALAAGADLTVQSIHKVLGAMTQASMLHIQGDRINAVRVSQALQLLQSTSPSYVLLASLDAARQQMALCGKQLMSRTLQLANEARERISQIPGLSVLQPPTMTPSSGFTTLDKTRLTITVSGLGLTGFAAEEILDEQLGVTAEFATFKHLTFIISLGNTTADIEQLVQGFTTLAETTPPAKALVNPRVNSNLEYFSEISPRDAFFADSETLSIEQARDRICAEIICPYPPGIPVIMPGEVITKPAIEYLQHIQSSGGFITGCADTSLSTLKVLVIGH | not soluble
15 | ESVLTQPPSVSGAPGQRVTISCTGSSSNIGAGYDVHWYQQLPGTAPKLLISGNSNRPSGVPDRFSGSKSGTSASLAITGLQAEDEADYYCQSYDSSLSGSVFGGGTKLTVLGQPKAAPSVTLFPPSSEELQANKATLVCLISDFYPGAVTVAWKADSSPVKAGVETTTPSKQSNNKYAASSYLSLTPEQWKSHRSYSCQVTHEGSTVEKTVAPTECS | soluble
16 | MSGSMLQLIDLCKGYVDGDEFHPVLQGAELTLNQGDQLALMGESGSGKSTLLNLIAGLDSADSGEIWFPGFPMHHTSEHHRTAFRRDNIGQIFQQYNLLPTLNIADNIRFCRQLKGLPEDAGLWRQILSALDLMPLLGRYPEEVSGGQQQRAAIARALYMEPKILLADEPTGSLDERNAEAVMRLLTTLTRQLNCALLLVTHSEKVAQHMDGCIRLQGGQLHVMARS | not soluble
17 | MYTKILGTGSYLPVQVRSNADLEKMVDTSDEWIVTRTGIRERRIAGLDETVATMGFQAAEKALEMAGIDKDDIGLIIVATTSSSHAFPSSACQVQRMLGIKDAASFDLAAACAGFTYALSVADQYVKSGAVKHAIVIGSDVLSRALDPEDRGTIILFGDGAGAVVLGASEQPGIMSTHLHADGRYGELLALPYPDRQQDQPAYVTMAGNEVFKVAVTELAHIVDETLQANNLDRTALDWLVPHQANLRIISATAKKLGMGMDKVVITLDRHGNTSAASVPSAFDEAVRDGRIQRGQLVLLEAFGGGFTWGSALVRF | not soluble
